± gives the half width of the 95% confidence interval.
assay: folding stability dG unfold from chymotrypsin proteolysis; higher = more stable
In short: (§1)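 How resistant each design was to proteolysis was captured as K50, inferred by Bayesian fitting of sequencing counts. Unfolding free energy was then derived relative to a sequence-predicted unfolded-state K50 and a shared folded-state K50, per protease or combined. Digestion used trypsin and chymotrypsin at 11 threefold-diluted concentrations plus a no-protease condition, on mini-proteins under 80 residues without cysteine in a PA-tagged cDNA display construct. Designs were kept only when AlphaFold2 dimer inter-PAE was above 15.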

Row | Sequence | folding stability dG unfold
1 | SAGGSAGGSTLKLEIVNEDGYKVEIEAELELVEKDGKLVLKLKVKIKVEPAKEVKEVKVELPESAGGSAGGS [r12_581_TrROS_Hall] | 3.87 ± 0.2 kcal/mol
2 | SANTRSIPFPGSADDIVDEIKNLIDANPDVKIRIQPMDGEEYEIDIEGIEKIKVERMPDGWYMITVELPSAG [r14_807_TrROS] | 1.63 ± 0.13 kcal/mol
3 | SMKVTVTVERLPDGRGRITITINDSTLEIEVPPGLDPEELRAFAEETAKEIEEKLKEEGNPVTIEEITLSSA [r9_751_JUSTAS] | 1.61 ± 0.14 kcal/mol
4 | SAGKTRTINFPGFQIQVQRDPDGKKEITIMFDNPEQRKQMIEQNPFLREFIEWAEKDGLKVEIHVMPPKSAG [r14_873_TrROS] | 2.04 ± 0.15 kcal/mol
5 | SPKELEFKHPDNGMEVKIRLDPNQGRIEIEVRPPNGPPVKMDMEVTDDRIKIDIYYPGGRPMMQLEFPLPSA [r9_665_TrROS] | 2.79 ± 0.074 kcal/mol
6 | SAGGKEKYKIKIYNKKTGKEYEFEIPLDEIVKYDKKNKKIYIKLKNGKKLEFKSLEDIVKIEIEKLPSAGGS [r8_111_TrROS_Hall] | 3.48 ± 0.056 kcal/mol
7 | SEKPPKVKIVSVEYNPETGTVTITVEVEPGQKVRIFVRNSDGSVQEIDLESKTITINLPPGAEIVRIEVLSA [r9_113_TrROS_Hall] | 4.16 ± 0.12 kcal/mol
8 | SAGGSAWIRINSPEMVEAFAKELKDEGWKLKDVDVQRDPNNGNVWFEIPIEHPNNGKKRELEIWFRSAGGSA [r15_123_TrROS] | -0.0873 ± 0.2 kcal/mol
9 | SAAEPPPVYLVRITVKVPPGVKPLPPGAVVTYDPATGTLTVYVLMTADEIDALAAAPGVEITDIEVIKLDSA [r9_827_TrROS_Hall] | 4.94 ± 0.28 kcal/mol
10 | SAGGMKVEVEKDPIKDGTTITVETGLDPEEVRAFLEELLGPPLEDVTFETAPDGTLVVTARVPPDVGSAGGS [r16_605_JUSTAS] | 0.564 ± 0.048 kcal/mol
11 | SSKIKEFIIKLPEKNKYYKIIVTPTEIYIYDENGKKIKKFSIPKNKKIKKIDIKIDKKKNKLIIKVYLEKSA [r9_939_TrMRF] | 4.54 ± 0.098 kcal/mol
12 | SAGGSAGGSAGGGMSFKKRKGSISLTLRVTLTLPNGTPATLDIELELEEETVEPVYPELESAGGSAGGSAGG [r7_926_JUSTAS] | 4.76 ± 0.14 kcal/mol
13 | SAGGMVTLTLPSPDGSTLTVTVEKDPNADYYRATVTTHHPDGTVTVTESVIHPDGTTTTLATTTLPASAGGS [r16_213_JUSTAS] | 2.22 ± 0.04 kcal/mol
14 | SAPKIDSISIMWPGNHWYISIWYPDKNGEPMKEVMFPFESPEDLKDQIEELSPPGDVTVDIYPMPPDAFSAG [r14_964_TrROS] | 1.54 ± 0.036 kcal/mol
15 | SAMIKVVLPGAKLEKVEVFPDKTVKAVFVAKDHLVEIYFDPETGKALIRVYDGEKEYEFVLDVHPDDVISAG [r14_218_TrMRF] | 4.8 ± 0.25 kcal/mol
16 | SAGGSAGGSAGGGSMESVVLNVPIYEKTPDGSWRLVKELPILVPVDASPEVVEKKRKELSAGGSAGGSAGGS [r10_470_JUSTAS] | -0.822 ± 0.68 kcal/mol

assay: folding stability dG unfold from trypsin proteolysis; higher = more stable
In short: as §1

Row | Sequence | folding stability dG unfold
17 | SAGGSAGGSKITVHRNPPGYYVIRIHGPGPITIMIPPKDADELANKLKDLGFDMKVEVYPLDDSAGGSAGGS [r20_124_TrROS] | 1.23 ± 0.028 kcal/mol
18 | SAGGSAGGSAGGALLVTPTPDGYIARVKDPNSDSWTVVPLSPEELEELAAAGVPTVEVLPSAGGSAGGSAGG [r7_266_JUSTAS] | -0.336 ± 0.32 kcal/mol
19 | SAGGSPKAREERFEKTLPDGTVVPVTLTRLPDGTVRVETTTYTYNSPEPVASTSTTTLPEAEVAAALSAGGS [r16_470_JUSTAS] | 0.631 ± 0.099 kcal/mol
20 | SAGGSEEEIKKKIEEIAKKRGTKIKSITIKKLPDGSLLATVTLEDNPNTTIEFKVEKNKVEITKINKSAGGS [r8_432_JUSTAS] | 1.73 ± 0.068 kcal/mol
21 | SAGISIRFPGMQIEIDEIERDNNKVVIRVEVTMPAKNPNGQPQMMTHTMWIVIKIPPPPPPADPADAKKSAG [r5_70_TrROS] | 2.81 ± 0.12 kcal/mol
22 | SAGGSAGGSAGGEVIEIELPGKTKEEIEEAIKKLPENYKIEIKKDENGRIRVRIFRKEDLSAGGSAGGSAGG [r7_662_TrROS_Hall] | 1.6 ± 0.15 kcal/mol
23 | SAGGSAGGSDVEDIIKKLKIPPGYRMRFPDGKSHKFNNLDDIRNLAEMGMPPDNIDKIQIQPYSAGGSAGGS [r12_430_TrROS] | -0.152 ± 0.22 kcal/mol
24 | SAEPITITWPNGMQIPLYKDDDGEIEIKIQMYDPKDGKPVGEQEQRIDPDDNTIEFRFPNGWPFSITIPDSA [r9_56_TrROS] | 0.835 ± 0.11 kcal/mol
25 | SAGGSAGGSAGGSIVVETKKNPGPERVVTVKLPDGTPLADVPVSPDEDPEEAVKRALELGSAGGSAGGSAGG [r7_444_JUSTAS] | 0.0908 ± 0.071 kcal/mol
26 | SAGGSPDEAVPLPVPAKITLPGGAEFTVEEAVVLPNGEVLVKATLISPYPDPREAPFVVPLELLDISSAGGS [r16_498_TrMRF] | -0.338 ± 0.054 kcal/mol
27 | SAGGATRIRVLATNASGEKVELDIPQAIADAIAEALKQGKPIPPGPASVIAAFATSNGYDFEIVDISSAGGS [r8_159_TrMRF] | 2.02 ± 0.062 kcal/mol
28 | SAGGPMPLDDIEIHNVWPYKGEYWMVMITVPNNGKEIMIPWDDLDELLENDPNVEVDVMPIKPGQPMSAGGS [r16_61_TrROS] | 1.12 ± 0.04 kcal/mol
29 | SAGGSAGGSAGGTITLPGGAEVTEVERLPGGVLKITGVLTLPGGPVTVEVTLPVTPELLESAGGSAGGSAGG [r7_38_JUSTAS] | 0.772 ± 0.034 kcal/mol
30 | SAGGYIPASARIEVLEVFEDGTVRVRVTYPDGSEAEVVARLVRTADGRVYLEIFDPRTGRLLATLELTSAGG [r13_527_TrMRF] | 4.09 ± 0.09 kcal/mol
31 | SAGGSAGGSAGKEEIKIEITKVEPLEDGSYIAEVIATPKNGKKIPYTALIDPKTGKITIGSAGGSAGGSAGG [r11_31_TrMRF] | 0.527 ± 0.11 kcal/mol
32 | SAGGSAGGSTLKLEIVNEDGYKVEIEAELELVEKDGKLVLKLKVKIKVEPAKEVKEVKVELPESAGGSAGGS [r12_581_TrROS_Hall] | 1.95 ± 0.16 kcal/mol

Row | Sequence | folding stability dG unfold
33 | SANTRSIPFPGSADDIVDEIKNLIDANPDVKIRIQPMDGEEYEIDIEGIEKIKVERMPDGWYMITVELPSAG [r14_807_TrROS] | 0.283 ± 0.33 kcal/mol
34 | SMKVTVTVERLPDGRGRITITINDSTLEIEVPPGLDPEELRAFAEETAKEIEEKLKEEGNPVTIEEITLSSA [r9_751_JUSTAS] | 2.58 ± 0.14 kcal/mol
35 | SAGKTRTINFPGFQIQVQRDPDGKKEITIMFDNPEQRKQMIEQNPFLREFIEWAEKDGLKVEIHVMPPKSAG [r14_873_TrROS] | 1.85 ± 0.071 kcal/mol
36 | SPKELEFKHPDNGMEVKIRLDPNQGRIEIEVRPPNGPPVKMDMEVTDDRIKIDIYYPGGRPMMQLEFPLPSA [r9_665_TrROS] | 2.92 ± 0.15 kcal/mol
37 | SAGGKEKYKIKIYNKKTGKEYEFEIPLDEIVKYDKKNKKIYIKLKNGKKLEFKSLEDIVKIEIEKLPSAGGS [r8_111_TrROS_Hall] | 2.34 ± 0.088 kcal/mol
38 | SEKPPKVKIVSVEYNPETGTVTITVEVEPGQKVRIFVRNSDGSVQEIDLESKTITINLPPGAEIVRIEVLSA [r9_113_TrROS_Hall] | 3.9 ± 0.23 kcal/mol
39 | SAGGSAWIRINSPEMVEAFAKELKDEGWKLKDVDVQRDPNNGNVWFEIPIEHPNNGKKRELEIWFRSAGGSA [r15_123_TrROS] | 0.368 ± 0.077 kcal/mol
40 | SAAEPPPVYLVRITVKVPPGVKPLPPGAVVTYDPATGTLTVYVLMTADEIDALAAAPGVEITDIEVIKLDSA [r9_827_TrROS_Hall] | 3.16 ± 0.22 kcal/mol
41 | SAGGMKVEVEKDPIKDGTTITVETGLDPEEVRAFLEELLGPPLEDVTFETAPDGTLVVTARVPPDVGSAGGS [r16_605_JUSTAS] | 0.627 ± 0.054 kcal/mol
42 | SSKIKEFIIKLPEKNKYYKIIVTPTEIYIYDENGKKIKKFSIPKNKKIKKIDIKIDKKKNKLIIKVYLEKSA [r9_939_TrMRF] | 4.14 ± 0.23 kcal/mol
43 | SAGGSAGGSAGGGMSFKKRKGSISLTLRVTLTLPNGTPATLDIELELEEETVEPVYPELESAGGSAGGSAGG [r7_926_JUSTAS] | 2.87 ± 0.086 kcal/mol
44 | SAGGMVTLTLPSPDGSTLTVTVEKDPNADYYRATVTTHHPDGTVTVTESVIHPDGTTTTLATTTLPASAGGS [r16_213_JUSTAS] | 2.11 ± 0.08 kcal/mol
45 | SAPKIDSISIMWPGNHWYISIWYPDKNGEPMKEVMFPFESPEDLKDQIEELSPPGDVTVDIYPMPPDAFSAG [r14_964_TrROS] | 1.38 ± 0.047 kcal/mol
46 | SAMIKVVLPGAKLEKVEVFPDKTVKAVFVAKDHLVEIYFDPETGKALIRVYDGEKEYEFVLDVHPDDVISAG [r14_218_TrMRF] | 3.47 ± 0.31 kcal/mol
47 | SAGGSAGGSAGGGSMESVVLNVPIYEKTPDGSWRLVKELPILVPVDASPEVVEKKRKELSAGGSAGGSAGGS [r10_470_JUSTAS] | -0.41 ± 0.13 kcal/mol

Source: the supplement of paper PMC12764529
